Results as given in the supplement of paper PMC5998384.

How the values were obtained:
[1] = test system: HeLa Kyoto; assay: solubility change mitosis vs G1/S (difference of NP-40 vs SDS log2 ratios) (log2 ratio difference); higher = more soluble in mitosis
[2] = test system: HeLa Kyoto; assay: solubility in G1/S (NP-40 vs SDS abundance) (log2 ratio); higher = more soluble; details: cell cycle stage: G1/S
[3] = test system: HeLa Kyoto; assay: melting temperature (median over replicates), in situ; higher = more thermally stable; details: cell cycle stage: mitosis
[4] = test system: HeLa Kyoto; assay: thermal stability score vs G1/S (z-score of summed log2 fold changes over temperatures); higher = more thermally stable than in G1/S
[5] = cell cycle stage: early G1 (4.5 h after nocodazole release)
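Wherever melting temperature (median over replicates), in situ is given: HeLa Kyoto cells synchronized by double thymidine or nocodazole block, proteins quantified by TMT10plex mass spectrometry, three independent biological replicates.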
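Wherever solubility change mitosis vs G1/S (difference of NP-40 vs SDS log2 ratios) is given: synchronized HeLa Kyoto cells (double thymidine block for G1/S, nocodazole release for mitosis), protein amounts in NP-40 versus SDS lysates quantified by mass spectrometry, three biological replicates.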
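Wherever solubility in G1/S (NP-40 vs SDS abundance) is given: HeLa Kyoto cells arrested at G1/S by double thymidine block, proteins quantified by TMT10plex mass spectrometry in mild NP-40 versus SDS extracts, three biological replicates.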
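Wherever thermal stability score vs G1/S (z-score of summed log2 fold changes over temperatures) is given: synchronized HeLa Kyoto cells, proteins quantified by TMT10plex mass spectrometry, three biological replicates, mitosis taken 0.5 h after nocodazole release, G1/S directly after double thymidine block.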

ERGIC3, sequence (chain, as listed by the source): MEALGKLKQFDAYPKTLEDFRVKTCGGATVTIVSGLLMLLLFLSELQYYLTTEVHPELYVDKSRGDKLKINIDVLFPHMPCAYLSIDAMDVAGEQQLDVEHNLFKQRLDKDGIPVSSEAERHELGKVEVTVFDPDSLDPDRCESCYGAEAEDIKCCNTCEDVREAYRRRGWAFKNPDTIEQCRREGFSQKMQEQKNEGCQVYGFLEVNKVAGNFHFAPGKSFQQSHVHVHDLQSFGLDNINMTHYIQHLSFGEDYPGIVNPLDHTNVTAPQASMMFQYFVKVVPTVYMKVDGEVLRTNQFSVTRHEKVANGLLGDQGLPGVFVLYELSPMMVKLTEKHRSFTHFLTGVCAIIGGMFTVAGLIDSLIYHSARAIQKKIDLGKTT

Substance | solubility change mitosis (log2) [1] | other results
ABCE1 | -0.151 | 
ATP1B1 | -0.0049 | 
UNC119 | -0.0626 | 
WDR12 | 0.45 | 
RPS7 | 0.675 | 
MFSWMGRQAGGRERAGGADAVQTVTGGLRSLYLRKVLPLEEAYRFHEFHSPALEDADFENKPMILLVGQYSTGKTTFIRYLLEQDFPGMRIGPEPTTDSFIAVMYGETEGSTPGNALVVDPKKPFRKLSRFGNAFLNRFMCSQLPNQVLKSISVIDSPGILSGEKQRISRGYDFCQVLQWFAERVDRIILLFDAHKLDISDEFSEAIKAFRGQDDKIRVVLNKADQVDTQQLMRVYGALMWSLGKVINTPEVLRVYIGSFWAQPLQNTDNRRLFEAEAQDLFRDIQSLPQKAAVRKLNDLIKRARLAKVHAYIISYLKKEMPSVFGKENKKRELISRLPEIYIQLQREYQISAGDFPEVKAMQEQLENYDFTKFHSLKPKLIEAVDNMLSNKISPLMNLISQEETSTPTQLVQGGAFDGTTEGPFNQGYGEGAKEGADEEEWVVAKDKPVYDELFYTLSPINGKISGVNAKKEMVTSKLPNSVLGKIWKLADCDCDGMLDEEEFALAKHLIKIKLDGYELPSSLPPHLVPPSHRKSLPKAD [EHD4] |  | solubility in G1/S (log2) [2]: 0.226; melting temperature [3]: 50.4 °C
RPS25 | 0.71 | 
PTDSS1 | 0.124 | 
CDC73 | -0.0838 | 
MRPS26 | 0.0692 | 
RPL7L1 | 1.18 | 
RPS23 | 0.687 | 
MRPL38 | -0.0167 | 
RPL14 | 0.811 | 
BRD4 | 0.176 | 
RPL8 | 0.63 | 
MRPL22 | -0.00907 | 
MRPL49 | 0.257 | 
POLR2H | -0.00215 | 
ERGIC3 | -0.0891 | thermal stability score [4, 5]: -2.7; thermal stability score ([4]; cell cycle stage: mitosis): -7.02

Substance | solubility change mitosis (log2) [1] | other results
LAMTOR5 | -0.0394 | 
TPCN1 | -0.0955 | 
MRPL19 | 0.048 | 
TTR | 0.336 | 
MAASSSGEKEKERLGGGLGVAGGNSTRERLLSALEDLEVLSRELIEMLAISRNQKLLQAGEENQVLELLIHRDGEFQELMKLALNQGKIHHEMQVLEKEVEKRDSDIQQLQKQLKEAEQILATAVYQAKEKLKSIEKARKGAISSEEIIKYAHRISASNAVCAPLTWVPGDPRRPYPTDLEMRSGLLGQMNNPSTNGVNGHLPGDALAAGRLPDVLAPQYPWQSNDMSMNMLPPNHSSDFLLEPPGHNKENEDDVEIMSTDSSSSSSESD [MED4] | -0.0345 | thermal stability score [4, 5]: -1.56; thermal stability score ([4]; cell cycle stage: mitosis): -1.18
ICT1 | 0.134 | 
PPIA | -0.0495 | 
POLR2I | 0.429 | 
MPGIDKLPIEETLEDSPQTRSLLGVFEEDATAISNYMNQLYQAMHRIYDAQNELSAATHLTSKLLKEYEKQRFPLGGDDEVMSSTLQQFSKVIDELSSCHAVLSTQLADAMMFPITQFKERDLKEILTLKEVFQIASNDHDAAINRYSRLSKKRENDKVKYEVTEDVYTSRKKQHQTMMHYFCALNTLQYKKKIALLEPLLGYMQAQISFFKMGSENLNEQLEEFLANIGTSVQNVRREMDSDIETMQQTIEDLEVASDPLYVPDPDPTKFPVNRNLTRKAGYLNARNKTGLVSSTWDRQFYFTQGGNLMSQARGDVAGGLAMDIDNCSVMAVDCEDRRYCFQITSFDGKKSSILQAESKKDHEEWICTINNISKQIYLSENPEETAARVNQSALEAVTPSPSFQQRHESLRPAAGQSRPPTARTSSSGSLGSESTNLAALSLDSLVAPDTPIQFDIISPVCEDQPGQAKAFGQGGRRTNPFGESGGSTKSETEDSILHQLFIVRFLGSMEVKSDDHPDVVYETMRQILAARAIHNIFRMTESHLLVTCDCLKLIDPQTQVTRLTFPLPCVVLYATHQENKRLFGFVLRTSSGRSESNLSSVCYIFESNNEGEKICDSVGLAKQIALHAELDRRASEKQKEIERVKEKQQKELNKQKQIEKDLEEQSRLIAASSRPNQASSEGQFVVLSSSQSEESDLGEGGKKRESEA [APPL1] |  | solubility in G1/S (log2) [2]: 0.05; melting temperature [3]: 50.4 °C
MFYAHFVLSKRGPLAKIWLAAHWDKKLTKAHVFECNLESSVESIISPKVKMALRTSGHLLLGVVRIYHRKAKYLLADCNEAFIKIKMAFRPGVVDLPEENREAAYNAITLPEEFHDFDQPLPDLDDIDVAQQFSLNQSRVEEITMREEVGNISILQENDFGDFGMDDREIMREGSAFEDDDMLVSTTTSNLLLESEQSTSNLNEKINHLEYEDQYKDDNFGEGNDGGILDDKLISNNDGGIFDDPPALSEAGVMLPEQPAHDDMDEDDNVSMGGPDSPDSVDPVEPMPTMTDQTTLVPNEEEAFALEPIDITVKETKAKRKRKLIVDSVKELDSKTIRAQLSDYSDIVTTLDLAPPTKKLMMWKETGGVEKLFSLPAQPLWNNRLLKLFTRCLTPLVPEDLRKRRKGGEADNLDEFLKEFENPEVPREDQQQQHQQRDVIDEPIIEEPSRLQESVMEASRTNIDESAMPPPPPQGVKRKAGQIDPEPVMPPQQVEQMEIPPVELPPEEPPNICQLIPELELLPEKEKEKEKEKEDDEEEEDEDASGGDQDQEERRWNKRTQQMLHGLQRALAKTGAESISLLELCRNTNRKQAAAKFYSFLVLKKQQAIELTQEEPYSDIIATPGPRFHII [RAD21] | -0.0219 | thermal stability score [4, 5]: -1.05; thermal stability score ([4]; cell cycle stage: mitosis): -1.37
MRPL57 | -0.109 | 
PPP2R5C | -0.158 | 
MRPS18A | 0.0389 | 
CTSB | -0.123 | 
RPS19 | 1.02 | 
MRPS28 | 0.31 | 
WDR61 | -0.0946 | 
EIF6 | 0.0864 | 
HMGN2 | 1.68 | 
RPLP0 | 0.6 | 
